Substrate in the data set: CSCC[C@H](NC(C)=O)C(=O)N[C@H](C(=O)N[C@@H](CC(=O)O)C(=O)N[C@@H](Cc1ccccc1)C(=O)N[C@@H](Cc1ccc(O)cc1)C(=O)N[C@H](C(=O)N1CCC[C@H]1C(=O)N[C@H](C(=O)N[C@@H](CO)C(=O)N[C@@H](CC(C)C)C(=O)N[C@@H](CS)C(=O)N[C@H](C(=O)N1CCC[C@H]1C(=O)N[C@@H](CO)C(=O)N[C@@H](CCCNC(=N)N)C(=O)N[C@@H](C)C(=O)N[C@@H](C)C(=O)N[C@@H](CC(C)C)C(=O)N[C@@H](CC(C)C)C(=O)N[C@H](C(=O)NCC(=O)N[C@@H](CCCNC(=N)N)C(=O)N[C@@H](CO)C(N)=O)[C@@H](C)O)[C@@H](C)O)C(C)C)C(C)C)[C@@H](C)O
Nature of the data set: In vitro assay for FGE with peptide P23 as substrate (MALDI-TOF). Type of data set: biochemical, bovine. As to conditions: other: standard conditions; pH 9.0; 37.0 °C. On the procedure: For monitoring the activity of FGE, the N-acetylated and C-amidated 23mer peptide P23 ([…]) (SEQ ID NO:33) was used as substrate. The conversion of the Cysteine residue in position 11 to FGly was monitored by MALDI-TOF mass spectrometry. A 6 μM stock solution of P23 in 30% acetonitrile and 0.1% trifluoroacetic acid (TFA) was prepared. Under standard conditions 6 pmol of P23 were incubated at 37° C. with up to 10 μl enzyme in a final volume of 30 μl 50 mM Tris/HCl, pH 9.0, containing 67 mM NaCl, 15 μM CaCl2, 2 mM DTT, and 0.33 mg/ml bovine serum albumin. To stop the enzyme reaction 1.5 μl 10% TFA were added. […] Activity (pmol product/h) was calculated on the basis of the peak height of the product divided by the sum of the peak heights of P23 and the product.
We had developed an assay for determining FGE activity in microsome extracts using in vitro synthesized [^35S] […] The quantitation of the product included tryptic digestion, separation of the peptides by RP-HPLC and identification and quantitation of the [^35S]-labeled FGly containing tryptic peptide by a combination of chemical derivatization to hydrazones, RP-HPLC separation and liquid scintillation counting (Fey et al., J. Biol. Chem., 2001, 276:47021-47028). […] The cysteine and the FGly containing forms of P23 could be identified and quantified by matrix-assisted laser desorption/ionisation time of flight (MALDI-TOF) mass spectrometry. […]

B1: FGE (Bos taurus) (protein)
chain: GEEAGPEAGAPSLVGSCGCGNPQRPGAQGSSAAAHRYSREANAPGSVPGGRPSPPTKMVPIPAGVFTMGTDDPQIKQDGEAPARRVAIDAFYMDAYEVSNAEFEKFVNSTGYLTEAEKFGDSFVFEGMLSEQVKSDIQQAVAAAPWWLPVKGANWRHPEGPDSTVLHRPDHPVLHVSWNDAVAYCTWAGKRLPTEAEWEYSCRGGLQNRLFPWGNKLQPKGQHYANIWQGEFPVTNTGEDGFRGTAPVDAFPPNGYGLYNIVGNAWEWTSDWWTVHHSAEETINPKGPPSGKDRVKKGGSYMCHKSYCYRYRCAARSQNTPDSSASNLGFRCAADHLPTTG
notes: the soluble fraction (reticuloplasm) of bovine testis microsomes served as the starting material; from tissue; host or cells: bovine testis rough microsomes, reticuloplasm
What is called Km is the concentration of substrate that gives half-maximal velocity. As for B1, the Km amounted to 0.013 µM.

The record behind these values is patent US8227212B2, “Cell that expresses a sulfatase and a formylglycine generating enzyme” (Shire Human Genetic Therapies, Inc., priority 2003, dated 2012).
